Sequences and labels used below:
B1: Tissue-type plasminogen activator, P00750 (parent)
chain: MDAMKRGLCCVLLLCGAVFVSPSQEIHARFRRGARSYQVICRDEKTQMIYQQHQSWLRPVLRSNRVEYCWCNSGRAQCHSVPVKSCSEPRCFNGGTCQQALYFSDFVCQCPEGFAGKCCEIDTRATCYEDQGISYRGTWSTAESGAECTNWNSSALAQKPYSGRRPDAIRLGLGNHNYCRNPDRDSKPWCYVFKAGKYSSEFCSTPACSEGNSDCYFGNGSAYRGTHSLTESGASCLPWNSMILIGKVYTAQNPSAQALGLGKHNYCRNPDGDAKPWCHVLKNRRLTWEYCDVPSCSTCGLRQYSQPQFRIKGGLFADIASHPWQAAIFAKHRRSPGERFLCGGILISSCWILSAAHCFQERFPPHHLTVILGRTYRVVPGEEEQKFEVEKYIVHKEFDDDTYDNDIALLQLKSDSSRCAQESSVVRTVCLPPADLQLPDWTECELSGYGKHEALSPFYSERLKEAHVRLYPSSRCTSQHLLNRTVTDNMLCAGDTRSGGPQANLHDACQGDSGGPLVCLNDGRMTLVGIISWGLGCGQKDVPGVYTKVTNYLDWIRDNMRP

The series covers variants of B1. The settings on record: Homo sapiens, pH 4.5, Thermal, DSC, reversible: yes, structure 1TPK, whole UniProt chain shown.
Setting [1] is: 64.3 °C, Citric acid trisodium citrate 0.1 M 0.1 M.
Where [2] appears, read: Citric acid/trisodium citrate 0.1 M/0.1 M/.

This is an account of results in FireProtDB (doi:10.1021/bi00435a062).

What is called Tm is the temperature at which the thermal transition is half complete.

With V280L, under setting [1], the “ddG of mutation (higher = less stable)” value was 7.95 kJ/mol and the “heat capacity change of unfolding” value was determined as 0.9 kcal/mol/K. Under setting [2], the Tm came to 55.8 °C; the “change of melting temperature, mutant - wild type (higher = more stable)” value (“change of melting temperature, mutant” for short) is -8.5 °C; the “unfolding enthalpy (calorimetric)” value is 293 kJ/mol.
As to V280M, the “ddG of mutation (higher = less stable)” value under setting [1] was found to be 9.2 kJ/mol. For the same variant, under setting [2], the midpoint of thermal melting (Tm) turned out to be 54.4 °C; the “change of melting temperature, mutant” value is -9.9 °C; the “unfolding enthalpy (calorimetric)” value was found to be 284 kJ/mol.
Regarding V280A, under setting [2], the Tm is 55.5 °C; the “change of melting temperature, mutant” value is -8.8 °C; the “unfolding enthalpy (calorimetric)” value came out at 303 kJ/mol.
V280S: under setting [1], the “ddG of mutation (higher = less stable)” value stood at 10 kJ/mol and the “heat capacity change of unfolding” value came to 0.9 kcal/mol/K. Besides, under setting [2], the Tm is 52.9 °C; the “change of melting temperature, mutant” value is -11.4 °C; the “unfolding enthalpy (calorimetric)” value came to 265 kJ/mol.
Turning to V280T, under setting [1], the “ddG of mutation (higher = less stable)” value was determined as 4.18 kJ/mol and the “heat capacity change of unfolding” value stood at 0.9 kcal/mol/K. Under setting [2], the Tm was 60 °C; the “change of melting temperature, mutant” value was -4.3 °C; the “unfolding enthalpy (calorimetric)” value was found to be 314 kJ/mol.
As for V280I, under setting [1], the “ddG of mutation (higher = less stable)” value is -1.26 kJ/mol, the “heat capacity change of unfolding” value worked out at 0.9 kcal/mol/K and the “unfolding enthalpy (calorimetric)” value worked out at 282 kJ/mol. Also, under setting [2], the Tm was 64.8 °C; the “change of melting temperature, mutant” value is 0.5 °C; the “unfolding enthalpy (calorimetric)” value came to 282 kJ/mol.
